Measurements: PMC10311354, “RNA-binding is an ancient trait of the Annexin family” (Frontiers in Cell and Developmental Biology, 2023)

How the values were obtained:
[1] = system: AnxA2 (Rattus norvegicus); experiment: BLI; details: RNA-binding buffer: 10 mM triethanolamine pH 7.4, 50 mM KCl, 1 mM DTT, 2 mM MgSO4, 100 uM CaCl2; spot blot at RT, blocked with 1 mg/mL tRNA; BLI temperature …
[2] = system: Δ188AnxA11 (Rattus norvegicus); experiment: BLI; details: RNA-binding buffer: 10 mM triethanolamine pH 7.4, 50 mM KCl, 1 mM DTT, 2 mM MgSO4, 100 uM CaCl2; spot blot at RT, blocked with 1 mg/mL tRNA; BLI temperature …
[3] = system: AnxA13 (Rattus norvegicus); experiment: BLI; details: RNA-binding buffer: 10 mM triethanolamine pH 7.4, 50 mM KCl, 1 mM DTT, 2 mM MgSO4, 100 uM CaCl2; spot blot at RT, blocked with 1 mg/mL tRNA; BLI temperature …
[4] = system: Δ142AnxA7 (Rattus norvegicus); experiment: BLI; details: RNA-binding buffer: 10 mM triethanolamine pH 7.4, 50 mM KCl, 1 mM DTT, 2 mM MgSO4, 100 uM CaCl2; spot blot at RT, blocked with 1 mg/mL tRNA; BLI temperature …
[5] = target: the molecule itself; experiment: SDS-PAGE (Coomassie Brilliant Blue staining); purified recombinant rat Anxs on 4%-15% SDS-PAGE, denaturation buffer with beta-mercaptoethanol; dimeric forms seen as faint bands beside the monomer; nature of the dimers not known (disulfide or tight noncovalent)

Molecule | Kd [1] [nM] | Kd [2] [nM] | Kd [3] [nM] | Kd [4] [nM] | binding result [5]
c-myc 5'UTR | 37.2 |  |  |  | 
anxA2 3'UTR | 192 | > 500 | 246 | 174 | 
c-myc 3'UTR | 73.9 | 124 | 130 | 126 | 
rat Annexin A1 (natural protein, UniProt P07150 1-346, looked up, Annexin A1, rat, isoform X1, 346 aa, cDNA by RT-PCR from PC12 cells; The forward primer puts ATGGGT before the natural start codon, so Met-Gly may precede the natural Met; also called AnxA1; source: E. coli BL21 (DE3), purified (Ni2+-NTA, size exclusion chromatography)) MAMVSEFLKQACYIEKQEQEYVQAVKSYKGGPGSAVSPYPSFNPSSDVAALHKAIMVKGVDEATIIDILTKRTNAQRQQIKAAYLQETGKPLDETLKKALTGHLEEVVLAMLKTPAQFDADELRAAMKGLGTDEDTLIEILTTRSNQQIREITRVYREELKRDLAKDITSDTSGDFRNALLALAKGDRCEDMSVNQDLADTDARALYEAGERRKGTDVNVFNTILTTRSYPHLRKVFQNYRKYSQHDMNKALDLELKGDIEKCLTTIVKCATSTPAFFAEKLYEAMKGAGTRHKTLIRIMVSRSEIDMNEIKVFYQKKYGIPLCQAILDETKGDYEKILVALCGGN |  |  |  |  | binds
rat Annexin A3 (natural protein, UniProt P14669 1-324, looked up, The forward primer puts ATGGGT before the natural start codon, so Met-Gly may precede the natural Met; also called AnxA3; source: E. coli BL21 (DE3), purified (Ni2+-NTA, size exclusion chromatography)) MAASLWVGPRGTINNYPGFNPSVDAEAIRKAIKGIGTDEKTLINILTERSNAQRQLIVKQYQEAYEQALKADLKGDLSGHFEHVMVALITAPAVFDAKQLKKSMRGMGTDEDTLIEILTTRTSRQMKEISQAYYTAYKKNLRDDISSETSGDFRKALLTLADGGRDESLKVDEHLAKKDAQTLYDAGEKKWGTDEDKFTEILCLRSFPQLKLTFDEYRNISQKDIEDSIKGELSGHFEDLLLAVVRCTRNTPAFLAGRLHQALKGAGTDEFTLNRIMVSRSEIDLLDIRREFKKHYGCSLYSAIQSDTSGDYRTVLLKICGGDD |  |  |  |  | binds
rat Annexin A8 (natural protein, UniProt Q4FZU6 1-327, looked up, Annexin A8, rat, 327 aa, cDNA from total RNA of rat lung; The forward primer puts ATGGGT before the natural start codon, so Met-Gly may precede the natural Met; also called AnxA8; source: E. coli BL21 (DE3), purified (Ni2+-NTA, size exclusion chromatography)) MAWWKAWVEQEGVSVKGSSHFNPDPDAETLYKAMKGIGTNEQAIIDVLTKRSNVQRQQIAKSFKAQFGKDLTETLKSELSGKFERLIVALMYPPYRYEAKELHDAMKGLGTKEGVIIEILASRTKNQLREIMKAYEEDYGSTLEEDIQGDTSGYLERILVCLLQGCRDDVSGFVDPGLALQDAQDLHAAGEKILGTDEMKFITILCTRSATHLMRVFEEYEKIANKSIEDSIKSETHGSLEEAMLTVVKCTRNVHSYFAERLYYAMKGAGTLDGTLIRNIVSRSEIDLNLIKSQFQKMYGKTLSSMIMGDTSGYYKTALLNLVGTDL |  |  |  |  | binds
rat Annexin A2 (natural protein, UniProt Q07936 1-339, looked up, The forward primer puts ATGGGT before the natural start codon, so Met-Gly may precede the natural Met; also called AnxA2; source: E. coli BL21 (DE3), purified (Ni2+-NTA, size exclusion chromatography)) MSTVHEILCKLSLEGDHSTPPSAYGSVKPYTNFDAERDALNIETAIKTKGVDEVTIVNILTNRSNAQRQDIAFAYQRRTKKELPSAMKSALSGHLETVMLGLLKTPAQYDASELKASMKGLGTDEDSLIEIICSRTNQELQEINRVYKEMYKTDLEKDIISDTSGEFRKLLVALAKGKRAEDGSVIDYELIDQDARELYDAGVKRKGTDVPKWISIMTERSVCHLQKVFERYKSYSPYDMLESIRKEVKGDLENAFLNLVQCIQNKPLYFADRLYDSMKGKGTRDKVLIRIMVSRSEVDMLKIRSEFKRKYGKSLYYFIQQDTKGDYQKALLYLCGGDD |  |  |  |  | binds
